# Positions count from the first letter of the chain named.
# B1: P015044 scFv (scFv, V domains shown)
# VH: EVQLLESGGGLVQPGGSLRLSCAASGFTFSNYAMHWVRQAPGKGLEWVSIIYPDDDTRYNPSFRGRFTISRDNSKNTLYLQMNSLRAEDTAVYYCARDLLYAGDYWGQGTLVTVSS
# VL: QSVLTQPPSASGTPGQRVTISCGGNNIESKAVHWYQQLPGTAPKLLIYANNKRPSGVPDRFSGSKSGTSASLAISGLRSEDEADYYCQSYDSNKVVFGGGTKLTVL
# notes: HA-tagged scFv
# B2: P015022 scFv (scFv, V domains shown)
# VH: EVQLLESGGGLVQPGGSLRLSCAASGFTFSNYDMSWVRQAPGKGLEWVSSISSNGGSTYYADSVKGRFTISRDNSKNTLYLQMNSLRAEDTAVYYCAKCLLQFDYWGQGTLVTVSS
# VL: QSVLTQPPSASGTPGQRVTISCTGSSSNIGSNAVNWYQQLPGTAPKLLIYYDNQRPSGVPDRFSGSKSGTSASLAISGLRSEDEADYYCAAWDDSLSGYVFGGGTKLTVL
# notes: HA-tagged scFv
# B3: P015006 scFv (scFv, V domains shown)
# VH: EVQLLESGGGLVQPGGSLRLSCAASGFTFSNYSMSWVRQAPGKGLEWVSAISHGSGSIYYADSVKGRFTISRDNSKNTLYLQMNSLRAEDTAVYYCAKPISAWSHIRMSYAYGMDVWGQGTLVTVSS
# VL: QSVLTQPPSASGTPGQRVTISCTGSSSNIGSNYVSWYRQLPGTAPKLLIYSDSNRPSGVPDRFSGSKSGTSASLAISGLRSEDEADYYCATWDASLSAYVFGGGTKLTVL
# notes: HA-tagged scFv
# B4: P015024 scFv (scFv, V domains shown)
# VH: EVQLLESGGGLVQPGGSLRLSCAASGFTFSDYYMSWVRQAPGKGLEWVSLISPGSDSKYYADSVKGRFTISRDNSKNTLYLQMNSLRAEDTAVYYCAKIEPDFDYWGQGTLVTVSS
# VL: B3 VL with T23S, Y33T, V34F, S35N, R38Q, S51A, N54H, A94Y
# notes: HA-tagged scFv
# B5: P015013 scFv (scFv, V domains shown)
# VH: EVQLLESGGGLVQPGGSLRLSCAASGFTFSSYDMSWVRQVPGKGLEWVSWISHGGGSIYYADSVKGRFTISRDNSKNTLYLQMNSLRAEDTAVYYCARDLSNRLFTGFDYWGQGTLVAVSS
# VL: B3 VL with T23S, Y33S, S35Y, R38Q, L47P, N54H, A90G, A94Y, S97N
# notes: HA-tagged scFv
# B6: P015020 scFv (scFv, V domains shown)
# VH: B2 VH with N31G, D33Y, S50V, S53H, N54D, G56S, C99V, L100K, L101Y, Q102I
# VL: B3 VL with S31N, Y33T, S35N, R38Q, S51A, A90D, A94S, S97N
# notes: HA-tagged scFv
# B7: P015009 scFv (scFv, V domains shown)
# VH: EVQLLESGGGLVQPGGSLRLSCAASGFTFSNYSMSWVRQAPGKGLEWVSGIYSGNSNTYYADSVKGRFTISRDNSKNTLYLQMNSLRAEDTAVYYCAKDSRATHHRWHYYDNAMDVWGQGTLVTVSS
# VL: B3 VL with A90G, A94S, A98G
# notes: HA-tagged scFv
# B8: P015001 scFv (scFv, V domains shown)
# VH: EVQLLESGGGLAQPGGSLRLSCAASGFTFSNYDMSWVRQAPGKGPEWVSGIYSGNSNTYYADSVKGRFTISRDNSKNTLYLQMNSLRAEDTAVYYCARDLQYTEWAGFDYWGQGTLVTVSS
# VL: B3 VL with T23S, Y33D, S35T, R38Q, S51D, N54K, T91A, A94D, A98G
# notes: scFv of a phage-library clone from a bacterial extract, with HA tag
# B9: P015042 scFv (scFv, V domains shown)
# VH: EVQLLESGGGLVQPGGSLRLSCAASGFTFSDYAMSWVRQAPGKGLEWVSVISSDGGSIYYADSVKGRFTISRDNSKNTLYLQMNSLRAEDTAVYYCAKDRSRDMEVDFDYWGQGTLVTVSS
# VL: B3 VL with T23S, S35T, R38Q, S51D, D52S, N54Q, A90G, A94Y, A98G
# notes: HA-tagged scFv
# B10: P015011 scFv (scFv, V domains shown)
# VH: EVQLLESGGGLVQPGGSLRLSCAASGFTFSNYAMSWVRQAPGKGLEWVSGISPDGGSIYYADSVKGRFTISRDNSKNTLYLQMNSLRAEDTAVYYCAKAARLSPSMNYSYAYGMDVWGQGTLVTVSS
# VL: B3 VL with S31N, R38Q, N54H, A90G, A94Y, S97N, A98G
# notes: HA-tagged scFv
# B11: P015023 scFv (scFv, V domains shown)
# VH: EVQLLESGGGLVQPGGSLRLSCAASGFTFSGYDMSWVRQAPGKGLEWVSGISHDGRSKYYADSVKGRFTVSRDNSKNTLYLQMNSLRAEDTAVYYCAKDVPFKMRFIFDYWGQGTLVTVSS
# VL: B3 VL with I20L, Y33T, S35Y, R38Q, S51A, N54Q, A90G, T91S, A94S, S97N
# notes: HA-tagged scFv
# B12: P015028 scFv (scFv, V domains shown)
# VH: EVQLLESGGGMVQTGGSLRLSCAASGFTFSDYAMSWVRQAPGKGLEWVSAISYDNGNTYYADSVKGRFTISRDNSKNALYLQMNSLRAEDTAVYYCAKVNHRFDYWGQGTLVTVSS
# VL: B3 VL with T23S, Y33T, V34F, S35N, R38Q, S51A, D52N, N54H, T91S, A98G
# notes: HA-tagged scFv
# B13: P015039 scFv (scFv, V domains shown)
# VH: EVQLLESGGGLVQPGGSLRLSCAASGFTFSDYAMSWVRQAPGKGLEWVSWISPGGGNTYYADSVKGRFTISRDNSKNTLYLQMNSLRAEDTAVYYCAKGALMCLSATCSSDYGMDVWGQGTLVTVSS
# VL: B3 VL with S31N, Y33A, R38Q, S53N, N54Q, A90G, A94Y, S97N, A98G
# notes: HA-tagged scFv
# B14: P015014 scFv (scFv, V domains shown)
# VH: EVQLLESGGGLVQPGGSLRLSCAVSGFTFSSYSMSWVRQAPGKGLEWVSAISPGDSNKYYADSVKGRFTISRDNSKNTLYLQINSLRAEDTAVYYCARTFPYFDYWGQGTLVTVSS
# VL: QSVLTQPPSASGTPGERVTISCSSSSSNIGSNYVNWYQQLPGTAPKLLIYDNSQRPSGVPDRFSGSKSGTSASLAISGLRSEDEADYYCGSWDDSLSGYVFGGGTKLTVL
# notes: HA-tagged scFv
# B15: P015043 scFv (scFv, V domains shown)
# VH: B2 VH with S50W, S53P, N54G, G56S, T58I, C99T, L101T, Q102R
# VL: B3 VL with S31N, Y33N, R38Q, S51Y, N54H, A90G, A94S, A98G
# notes: HA-tagged scFv
# B16: P015002 scFv (scFv, V domains shown)
# VH: EVQLLESGGGLVQPGGSLRLSCAASGFTFSDYSMSWVRQAPGKGLEWVSGISHNGGSTYYADSVKGRFTISRDNSKNTLYLQMSSLRAEDTAVYYCARDVSRWSKTRWSYDNAMDVWGQGTLVTVSS
# VL: B3 VL
# notes: HA-tagged scFv
# B17: P015010 scFv (scFv, V domains shown)
# VH: B10 VH with D54N, G56S, M106R
# VL: B3 VL with S31N, Y33N, S35T, R38Q, N54Q, A90G, A94Y, S97N, A98G
# notes: HA-tagged scFv
# B18: P015003 scFv (scFv, V domains shown)
# VH: EVQLLESGGGLVQPGGSLRLSCAASGFTFSSYAMSWVRQAPGKGLEWVSGISPGGSSKYYADSVKGRFTISRDNSKNTLYLQMNSLRAEDTAVYYCARGPHRAIDTAFDYWGQGTLVTVSS
# VL: B3 VL
# notes: HA-tagged scFv
# B19: P015040 scFv (scFv, V domains shown)
# VH: B10 VH with D54N, G56S, M106R
# VL: B3 VL with S31N, Y33N, S35T, R38Q, N54Q, E82K, A90G, A94Y, S97N, A98G
# notes: HA-tagged scFv
# B20: P015041 scFv (scFv, V domains shown)
# VH: B10 VH with D54N, G56S, M106R
# VL: B3 VL with S31N, Y33N, S35T, R38Q, N54Q, A90G, D93E, A94Y, S97N, A98G
# notes: HA-tagged scFv
# B21: P015005 scFv (scFv, V domains shown)
# VH: B16 VH
# VL: B14 VL with E16Q, S24G, D51S, N52D, Q54H, D94S, S97N, G98A, F101L
# notes: HA-tagged scFv
# B22: P015038 scFv (scFv, V domains shown)
# VH: B10 VH with L5Q, Q13L, S30N, D54N, G56S, M106R
# VL: B3 VL with S31N, Y33N, S35T, R38Q, N54Q, A90G, A94Y, S97N, A98G
# notes: HA-tagged scFv
# B23: P015012 scFv (scFv, V domains shown)
# VH: EVQLLESGGGLVQPGGSLRLSCAASGFTFSGYSMSWVRQAPGKGLEWVSGISYGGSSISYADSVKGRFTISRDNSKNTLYLQMNSLRAEDTAVYYCAKPVRRWARFRLSYDDAMDVWGQGTLVTVSS
# VL: B14 VL with E16Q, S24G, S31N, Y33A, D51A, Q54H, S91T, D94S
# notes: HA-tagged scFv
# B24: P015021 scFv (scFv, V domains shown)
# VH: EVQLLESGGGLVQPGGSLRLSCAASGFTFSSYAMSWVRQAPGKGLEWVSWISPGGGNIYYADSVKGRFTISRDNSKNTLYLQMNSLRAEDTAVYYCARSQSGFDYWGQGTLVTVSS
# VL: QSVLTQPPSASGTPGQRVTISCSGSSSNIGNNSVTWYQQLPGTAPKLLIYYDSHRPSGVPDRFSGSKSGTSASLAISGLRSEDEADYYCGAWDSSLNGYVFGGGTKLTVL
# notes: HA-tagged scFv
# Target: T1, FZD (human, UniProt Q01973)
# T1 construct: frizzled domain, His tag; also called Frizzled domain; human ROR1-frizzled domain
# Assay: scFv ELISA on coated domain, anti-HA-HRP, OD450
# Description: (§1) Thereafter, the plate was treated with each scFv and reacted for 2 hours, followed by washing four times using PBST and distilled water. After binding at room temperature for 1 hour using an HRP-conjugated anti-HA antibody (Roche, 12013819001, Anti-HA-Peroxidase, High Affinity) capable of binding to the HA tag, washing was performed six times using PBST and distilled water. After color development by adding TMB substrate solution (Thermo Scientific, 34029, 1-Step™ Ultra TMB-ELISA Substrate Solution), the color reaction was stopped with stop solution (Invitrogen, SS04, ELISA Stop Solution), and the absorbance was measured at OD 450 nm. The scFv binding to each domain was analyzed through ELISA.
# T1 sequence (Q01973 165-305 limits assumed): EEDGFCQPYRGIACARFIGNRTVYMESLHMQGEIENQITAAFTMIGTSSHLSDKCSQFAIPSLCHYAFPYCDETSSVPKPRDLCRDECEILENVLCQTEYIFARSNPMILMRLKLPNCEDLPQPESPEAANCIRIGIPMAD
row,Binder,binding result
1,B1,no binding
2,B2,no binding
3,B3,binds
4,B4,no binding
5,B5,binds
6,B6,no binding
7,B7,binds
8,B8,no binding
9,B9,no binding
10,B10,no binding
11,B11,no binding
12,B12,no binding

# Target: T2, FZD+KRD (human, UniProt Q01973)
# T2 construct: frizzled plus kringle domains, His tag; also called FK domain; human ROR1-frizzled-kringle domain
# Assay: scFv ELISA on coated domain, anti-HA-HRP, OD450
# Description: as §1
# T2 sequence (Q01973 165-395 limits assumed): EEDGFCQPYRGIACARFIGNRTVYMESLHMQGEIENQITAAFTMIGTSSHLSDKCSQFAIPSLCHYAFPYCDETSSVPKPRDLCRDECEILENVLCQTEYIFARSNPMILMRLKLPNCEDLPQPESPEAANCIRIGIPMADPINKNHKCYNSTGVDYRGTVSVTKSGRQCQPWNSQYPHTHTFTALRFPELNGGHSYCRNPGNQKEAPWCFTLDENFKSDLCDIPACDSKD
row,Binder,binding result
1,B1,no binding
2,B2,no binding
3,B4,no binding
4,B6,no binding
5,B13,no binding
6,B9,no binding
7,B11,no binding
8,B12,no binding
9,B14,no binding

# Target: T3, Ig-like (human, UniProt Q01973)
# T3 construct: Ig-like domain, His tag; also called Ig-like domain; human ROR1-immunoglobulin domain
# Assay: scFv ELISA on coated domain, anti-HA-HRP, OD450
# Description: as §1
# T3 sequence (Q01973 39-151 limits assumed): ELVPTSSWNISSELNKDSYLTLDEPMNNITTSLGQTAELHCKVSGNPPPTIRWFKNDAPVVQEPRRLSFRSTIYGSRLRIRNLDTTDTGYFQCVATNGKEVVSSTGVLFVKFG
row,Binder,binding result
1,B3,no binding
2,B15,no binding
3,B5,no binding
4,B7,no binding
5,B16,no binding
6,B13,binds
7,B17,binds
8,B18,no binding
9,B19,binds
10,B20,binds
11,B21,no binding
12,B22,binds
13,B23,no binding
14,B24,no binding
